Measurements reported in patent publication US20250296971A1, “GASTRIC INHIBITORY PEPTIDE RECEPTOR LIGANDS” (priority 2021, published 2025).
*1 amine or outer side, *2 acyl side, *3 side chain or, on linkers, in order; H or OH if unused. Where a SMILES comes first, the peptide text is derived from it. Bridges are numbered along the chain shown (N, C = ends). Primed or numbered codes have the meaning given here. [ ]: non-standard residue; d: D form. 2Lut = 2,6-lutidylidene bridge between two thiols; Trp(5-Cl) = N[C@@H](Cc1c[nH]c2ccc(Cl)cc12)C(=O)O; Phe(3,4-Cl2) = N[C@@H](Cc1ccc(Cl)c(Cl)c1)C(=O)O; Pyridine(2,6-diCH2) = c1cc(C[*:1])nc(C[*:2])c1; Trp(7-F) = N[C@@H](Cc1c[nH]c2c(F)cccc12)C(=O)O; Phe(2,4-Cl2) = N[C@@H](Cc1ccc(Cl)cc1Cl)C(=O)O; 2Lut″ = 2,6-lutidylidene linking two thiols; Phe(3-Cl) = N[C@@H](Cc1cccc(Cl)c1)C(=O)O; Phe(4-Cl) = N[C@@H](Cc1ccc(Cl)cc1)C(=O)O; Thz(5,5-Me2) = CC1(C)SCN[C@@H]1C(=O)O; Ser(ΨH,HPro) = O=C(O)[C@@H]1COCN1; Hyp = O=C(O)[C@@H]1C[C@@H](O)CN1; hArg = N=C(N)NCCCC[C@H](N)C(=O)O; NMeE = CN[C@@H](CCC(=O)O)C(=O)O; pS = N[C@@H](COP(=O)(O)O)C(=O)O; hLys = NCCCCC[C@H](N)C(=O)O; Thz = O=C(O)[C@@H]1CSCN1; Thp = NC1(C(=O)O)CCOCC1

T1: human GIP receptor (bioGIPR) (Homo sapiens, UniProt P48546)
T1 construct: Biotinylate extracellular of the human GIP receptor (bioGIPR, Proteros biostructures GmbH, lot #02/2b); purchased Proteros biostructures GmbH lot #02/2b
T1 sequence (P48546 22-138 limits assumed): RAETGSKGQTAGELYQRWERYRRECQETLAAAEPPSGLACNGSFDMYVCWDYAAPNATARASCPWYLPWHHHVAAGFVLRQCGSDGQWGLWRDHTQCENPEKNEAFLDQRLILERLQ

T2: GIPR (CHO-K1-hGIPR cells) (Homo sapiens, UniProt P48546)
T2 construct: host or cells: CHO-K1
T2 sequence (P48546 22-466): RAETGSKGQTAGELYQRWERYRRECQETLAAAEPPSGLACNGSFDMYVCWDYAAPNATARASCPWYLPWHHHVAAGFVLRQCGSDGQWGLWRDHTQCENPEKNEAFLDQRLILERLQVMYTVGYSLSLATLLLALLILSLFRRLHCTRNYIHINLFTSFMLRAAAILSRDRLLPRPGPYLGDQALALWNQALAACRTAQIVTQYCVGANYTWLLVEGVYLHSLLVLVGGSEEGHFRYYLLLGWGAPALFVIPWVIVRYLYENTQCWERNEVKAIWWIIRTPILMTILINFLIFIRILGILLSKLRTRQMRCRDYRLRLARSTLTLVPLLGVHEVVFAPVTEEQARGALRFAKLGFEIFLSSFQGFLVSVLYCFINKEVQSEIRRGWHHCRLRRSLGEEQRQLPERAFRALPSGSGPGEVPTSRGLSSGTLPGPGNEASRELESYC

B1: Ac-Asp-Hyw-5Clw-Hyp-Glu-leu-[Cys(2Lut)-Thp-Leu-Ile-Cys]-NH2 (peptide)
peptide: Ac-DX[Trp(5-Cl)][Hyp]E[dL]C[Thp]LIC-NH2
modifications: linker 7-11 via Pyridine(2,6-diCH2); not fully specified (residue 2); printed as Ac-Asp-Hyw-5Clw-Hyp-Glu-leu-[Cys(2Lut)-Thp-Leu-Ile-Cys]-NH2
B2: Ac-Asp-Egm-5Clw-Hyp-Glu-leu-[Cys(2Lut)-Thp-Leu-Ile-Cys]-NH2 (peptide)
peptide: Ac-D[Phe(2,4-Cl2)][Trp(5-Cl)][Hyp]E[dL]C[Thp]LIC-NH2
modifications: linker 7-11 via Pyridine(2,6-diCH2)
SMILES: CC[C@H](C)[C@@H]1NC(=O)[C@H](CC(C)C)NC(=O)C2(CCOCC2)NC(=O)[C@@H](NC(=O)[C@@H](CC(C)C)NC(=O)[C@H](CCC(=O)O)NC(=O)[C@@H]2C[C@@H](O)CN2C(=O)[C@H](Cc2c[nH]c3ccc(Cl)cc23)NC(=O)[C@H](Cc2ccc(Cl)cc2Cl)NC(=O)[C@H](CC(=O)O)NC(C)=O)CSCc2cccc(n2)CSC[C@@H](C(N)=O)NC1=O
B3: Ac-Asp-Mcf-5Clw-Hyp-Glu-leu-[Cys(2Lut)-Thp-Leu-Ile-Cys]-NH2 (peptide)
peptide: Ac-D[Phe(3-Cl)][Trp(5-Cl)][Hyp]E[dL]C[Thp]LIC-NH2
modifications: linker 7-11 via Pyridine(2,6-diCH2)
SMILES: CC[C@H](C)[C@@H]1NC(=O)[C@H](CC(C)C)NC(=O)C2(CCOCC2)NC(=O)[C@@H](NC(=O)[C@@H](CC(C)C)NC(=O)[C@H](CCC(=O)O)NC(=O)[C@@H]2C[C@@H](O)CN2C(=O)[C@H](Cc2c[nH]c3ccc(Cl)cc23)NC(=O)[C@H](Cc2cccc(Cl)c2)NC(=O)[C@H](CC(=O)O)NC(C)=O)CSCc2cccc(n2)CSC[C@@H](C(N)=O)NC1=O
B4: Ac-Asp-Eaa-5Clw-Hyp-Glu-leu-[Cys(2Lut)-Thp-Leu-Ile-Cys]-NH2 (peptide)
peptide: Ac-D[Phe(3,4-Cl2)][Trp(5-Cl)][Hyp]E[dL]C[Thp]LIC-NH2
modifications: linker 7-11 via Pyridine(2,6-diCH2)
SMILES: CC[C@H](C)[C@@H]1NC(=O)[C@H](CC(C)C)NC(=O)C2(CCOCC2)NC(=O)[C@@H](NC(=O)[C@@H](CC(C)C)NC(=O)[C@H](CCC(=O)O)NC(=O)[C@@H]2C[C@@H](O)CN2C(=O)[C@H](Cc2c[nH]c3ccc(Cl)cc23)NC(=O)[C@H](Cc2ccc(Cl)c(Cl)c2)NC(=O)[C@H](CC(=O)O)NC(C)=O)CSCc2cccc(n2)CSC[C@@H](C(N)=O)NC1=O

What was measured:
[1] = target: T1, human GIP receptor (bioGIPR); assay: Surface plasmon resonance (SPR) based binding assay; settings: Single Cycle Kinetic mode, 25° C.; for t1/2 Category: SPR dissociation half-life; for Kd: SPR, 1:1 Langmuir binding model, read-out: pKD Category (converted)
Summary of the method: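 Binding was measured at 25 °C by single-cycle kinetics against a reference flow cell, with blank-run and drift correction, after capturing biotinylated GIPR extracellular domain to ~3500 RU. Running buffer: HBST, 0.1% DMSO. A 1:1 Langmuir model gave kinetic rates, KD, t1/2 and pKD.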

[2] = target: T2, GIPR (CHO-K1-hGIPR cells); assay: FACS binding assay; settings: competition with 20 nM GIP-057, 4° C. for 1 hour, read-out: pIC50 Category (converted)
Summary of the method: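 Median fluorescence in the APC channel, measured on washed CHO-K1 cells overexpressing human GIPR, was fitted by four-parameter logistic regression against peptide concentration to yield EC50 or IC50 values. Secondary labelling used APC-streptavidin (1 μg/mL, 30 min, ice).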

[3] = target: human Gastric Inhibitory Peptide Receptor (GIPR) (human) (UniProt P48546); assay: FACS competition vs biotinylated GIP-057 on CHO-K1-hGIPR cells; category A: pIC50 >8.0

Molecule | t1/2 Category [1] | Kd [1] [nM] | IC50 [2] [nM] | pIC50 [3] [pic50]
CC[C@H](C)[C@@H]1NC(=O)[C@H](CC(C)C)NC(=O)C2(CCOCC2)NC(=O)[C@@H](NC(=O)[C@@H](CC(C)C)NC(=O)[C@H](CCCNC(=N)N)NC(=O)[C@@H]2C[C@@H](O)CN2C(=O)[C@H](Cc2c[nH]c3ccc(Cl)cc23)NC(=O)[C@H](Cc2c[nH]c3ccccc23)NC(=O)[C@H](CC(=O)O)NC(C)=O)CSCc2cccc(n2)CSC[C@@H](C(N)=O)NC1=O [GIP-376, Ac-Asp-Trp-5Clw-Hyp-Arg-leu-[Cys(2Lut)-Thp-Leu-Ile-Cys]-NH2] (Ac-DW[Trp(5-Cl)][Hyp]R[dL]C[Thp]LIC-NH2; linker 7-11 via Pyridine(2,6-diCH2)) | A (t1/2 values>15 min) | 1 to 7.94 | < 10 | –
CC[C@H](C)[C@@H]1NC(=O)[C@H](CC(C)C)NC(=O)C2(CCOCC2)NC(=O)[C@@H](NC(=O)[C@@H](CC(C)C)NC(=O)[C@H](Cc2c[nH]cn2)NC(=O)[C@@H]2C[C@@H](O)CN2C(=O)[C@H](Cc2c[nH]c3ccc(Cl)cc23)NC(=O)[C@H](Cc2c[nH]c3ccccc23)NC(=O)[C@H](CC(=O)O)NC(C)=O)CSCc2cccc(n2)CSC[C@@H](C(N)=O)NC1=O [GIP-377, Ac-Asp-Trp-5Clw-Hyp-His-leu-[Cys(2Lut)-Thp-Leu-Ile-Cys]-NH2] (Ac-DW[Trp(5-Cl)][Hyp]H[dL]C[Thp]LIC-NH2; linker 7-11 via Pyridine(2,6-diCH2)) | A (t1/2 values>15 min) | 1 to 7.94 | < 10 | –
CC[C@H](C)[C@@H]1NC(=O)[C@H](CC(C)C)NC(=O)C2(CCOCC2)NC(=O)[C@@H](NC(=O)[C@@H](CC(C)C)NC(=O)[C@H](CCCCCN)NC(=O)[C@@H]2C[C@@H](O)CN2C(=O)[C@H](Cc2c[nH]c3ccc(Cl)cc23)NC(=O)[C@H](Cc2c[nH]c3ccccc23)NC(=O)[C@H](CC(=O)O)NC(C)=O)CSCc2cccc(n2)CSC[C@@H](C(N)=O)NC1=O [GIP-378, Ac-Asp-Trp-5Clw-Hyp-Hly-leu-[Cys(2Lut)-Thp-Leu-Ile-Cys]-NH2] (Ac-DW[Trp(5-Cl)][Hyp][hLys][dL]C[Thp]LIC-NH2; linker 7-11 via Pyridine(2,6-diCH2)) | A (t1/2 values>15 min) | 1 to 7.94 | < 10 | –
CC[C@H](C)[C@@H]1NC(=O)[C@H](CC(C)C)NC(=O)C2(CCOCC2)NC(=O)[C@@H](NC(=O)[C@@H](CC(C)C)NC(=O)[C@H](CCCCNC(=N)N)NC(=O)[C@@H]2C[C@@H](O)CN2C(=O)[C@H](Cc2c[nH]c3ccc(Cl)cc23)NC(=O)[C@H](Cc2c[nH]c3ccccc23)NC(=O)[C@H](CC(=O)O)NC(C)=O)CSCc2cccc(n2)CSC[C@@H](C(N)=O)NC1=O [GIP-395, Ac-Asp-Trp-5Clw-Hyp-Har-leu-[Cys(2Lut)-Thp-Leu-Ile-Cys]-NH2] (Ac-DW[Trp(5-Cl)][Hyp][hArg][dL]C[Thp]LIC-NH2; linker 7-11 via Pyridine(2,6-diCH2)) | A (t1/2 values>15 min) | 1 to 7.94 | 10 to 79.4 | –
Ac-DW[Phe(3,4-Cl2)][Hyp]E[dL]C[Thp]LIC-NH2 (linker 7-11 via 2Lut″) [Ac-Asp-Trp-Eaa-Hyp-Glu-leu-[Cys(2Lut)-Thp-Leu-Ile-Cys]-NH2] | – | – | – | > 8
Ac-D[Trp(7-F)][Trp(5-Cl)][Hyp]E[dL]C[Thp]LIC-NH2 (linker 7-11 via Pyridine(2,6-diCH2)) [Ac-Asp-7Fw-5Clw-Hyp-Glu-leu-[Cys(2Lut)-Thp-Leu-Ile-Cys]-NH2] | – | – | – | > 8
B1 | – | – | – | > 8
Ac-DW[Trp(5-Cl)][Hyp][NMeE]LC[Thp]LIC-NH2 (linker 7-11 via Pyridine(2,6-diCH2)) [Ac-Asp-Trp-5Clw-Hyp-Nme-Leu-[Cys(2Lut)-Thp-Leu-Ile-Cys]-NH2] | – | – | – | > 8
{HO‑Glutar}-W[Trp(5-Cl)][Hyp]E[dL]C[Thp]LIC-NH2 (linker 6-10 via 2Lut) [HO-Glutar-Trp-5Clw-Hyp-Glu-leu-[Cys(2Lut)-Thp-Leu-Ile-Cys]-NH2] | – | – | – | > 8
Ac-D[Phe(4-Cl)][Trp(5-Cl)][Hyp]E[dL]C[Thp]LIC-NH2 (linker 7-11 via Pyridine(2,6-diCH2)) [Ac-Asp-Pcf-5Clw-Hyp-Glu-leu-[Cys(2Lut)-Thp-Leu-Ile-Cys]-NH2] | – | – | – | > 8
Ac-DW[Trp(5-Cl)][Ser(ΨH,HPro)]E[dL]C[Thp]LIC-NH2 (linker 7-11 via Pyridine(2,6-diCH2)) [Ac-Asp-Trp-5Clw-Oxa-Glu-leu-[Cys(2Lut)-Thp-Leu-Ile-Cys]-NH2] | – | – | – | > 8
Ac-DW[Trp(5-Cl)][Thz]E[dL]C[Thp]LIC-NH2 (linker 7-11 via Pyridine(2,6-diCH2)) [Ac-Asp-Trp-5Clw-Eaz-Glu-leu-[Cys(2Lut)-Thp-Leu-Ile-Cys]-NH2] | – | – | – | > 8
B2 | – | – | – | > 8
Ac-DW[Trp(5-Cl)][Thz(5,5-Me2)]E[dL]C[Thp]LIC-NH2 (linker 7-11 via Pyridine(2,6-diCH2)) [Ac-Asp-Trp-5Clw-Dtc-Glu-leu-[Cys(2Lut)-Thp-Leu-Ile-Cys]-NH2] | – | – | – | > 8
B3 | – | – | – | > 8
Ac-DW[Trp(5-Cl)][Hyp][pS][dL]C[Thp]LIC-NH2 (linker 7-11 via Pyridine(2,6-diCH2)) [Ac-Asp-Trp-5Clw-Hyp-Pse-leu-[Cys(2Lut)-Thp-Leu-Ile-Cys]-NH2] | – | – | – | > 8
B4 | – | – | – | > 8
